Data published in paper PMC11695720 (Nature Communications, 2025).

B1: FI-3A antibody (antibody, V domains shown)
VH: EVQLLESGGGLIQPGGSLRLSCAASGFTVSSNYMSWVRQAPGKGLEWVSVIYSGGSTYYADSVKGRFTISRDNSKNTLYLQMNSLRAEDTAVYYCARDHVRPGMNIWGQGTMVTVSS
VL: not shown
notes: source: ExpiCHO, transfected, purified (MabSelect SuRe); copies: 2 + 2
B2: EY6A antibody (antibody, V domains shown)
VH: EVQLVESGGGVVQPGRSLRLSCAASAFTFSSYDMHWVRQAPGKGLEWVAVISYDGSNKYYADSVKGRFTISRDNSKNTLYLQMNSLRAEDTAVYYCAKDGGKLWVYYFDYWGQGTLVTVSS
VL: not shown
notes: as for B1
B3: FD-11A IgG1 antibody (antibody, V domains shown)
VH: EVQLVESGGGVVQPGRSLRLSCAASGFTFSSYGMHWVRQAPGKGLEWVAVIWYDGSNKYYADSVKGRFTISRDNSKNTLYLQMNSLRAEDTAVYYCAKGPDILTGYYNYYYYGMDVWGQGTMVTVSS
VL: QSVLTQPPSVSGAPGQRVTISCTGSSSNIGAGYDVHWYQQLPGTAPKLLIYGNSNRPSGVPDRFSGSKSGTSASLAITGLQAEDEADYYCQSYDSSLSGFYVVFGGGTKLTVL
notes: also called IgG1 FD-11A; source: ExpiCHO, transfected, purified (MabSelect SuRe); copies: 2 + 2
B4: REGN10987 therapeutic antibody (antibody, V domains shown)
VH: QVQLVESGGGVVQPGRSLRLSCAASGFTFSNYAMYWVRQAPGKGLEWVAVISYDGSNKYYADSVKGRFTISRDNSKNTLYLQMNSLRTEDTAVYYCASGSDYGDYLLVYWGQGTLVTVSS
VL: QSALTQPASVSGSPGQSITISCTGTSSDVGGYNYVSWYQQHPGKAPKLMIYDVSKRPSGVSNRFSGSKSGNTASLTISGLQSEDEADYYCNSLTSISTWVFGGGTKLTVL
notes: as for B1
B5: FD-5D antibody (antibody, V domains shown)
VH: EVQLVESGGGLVQPGGSLRLSCAASGFTFSSYSMNWVRQAPGKGLEWVSYISSSSSTIYYADSVKGRFTISRDNAKNSLYLQMNSLRAEDTAVYYCASPGGITAAGTSVLFGYYGMDVWGQGTTVTVSS
VL: not shown
notes: as for B1

Assays:
[1] = molecular target: Soluble monovalent SARS-CoV-2 RBD (RBD-H) (SARS-CoV-2 (Wuhan, assumed), UniProt P0DTC2); test: SPR; conditions: both partners purified
[2] = molecular target: Biotinylated SARS-CoV-2 (Wuhan) RBD (SARS-CoV-2 (Wuhan), UniProt P0DTC2, biotin (EZ-Link Sulfo-NHS-LC-biotin per p-0040; Lys15 biotinylation site within the N-terminal AviTag per fig-0003 and p-0075)); test: SPR; conditions: both partners purified

Binder	binding result [1]	binding result [2]	Kd [2] [nM]
B1	binds	binds	–
B2	binds	binds	–
B3	–	–	1230
B4	–	binds	–
B5	binds	binds	–
